Paper PMC3488251 (Nucleic Acids Research, 2012)

Target: T1, XPF (UniProt Q92889 1-916)
T1 sequence (looked up): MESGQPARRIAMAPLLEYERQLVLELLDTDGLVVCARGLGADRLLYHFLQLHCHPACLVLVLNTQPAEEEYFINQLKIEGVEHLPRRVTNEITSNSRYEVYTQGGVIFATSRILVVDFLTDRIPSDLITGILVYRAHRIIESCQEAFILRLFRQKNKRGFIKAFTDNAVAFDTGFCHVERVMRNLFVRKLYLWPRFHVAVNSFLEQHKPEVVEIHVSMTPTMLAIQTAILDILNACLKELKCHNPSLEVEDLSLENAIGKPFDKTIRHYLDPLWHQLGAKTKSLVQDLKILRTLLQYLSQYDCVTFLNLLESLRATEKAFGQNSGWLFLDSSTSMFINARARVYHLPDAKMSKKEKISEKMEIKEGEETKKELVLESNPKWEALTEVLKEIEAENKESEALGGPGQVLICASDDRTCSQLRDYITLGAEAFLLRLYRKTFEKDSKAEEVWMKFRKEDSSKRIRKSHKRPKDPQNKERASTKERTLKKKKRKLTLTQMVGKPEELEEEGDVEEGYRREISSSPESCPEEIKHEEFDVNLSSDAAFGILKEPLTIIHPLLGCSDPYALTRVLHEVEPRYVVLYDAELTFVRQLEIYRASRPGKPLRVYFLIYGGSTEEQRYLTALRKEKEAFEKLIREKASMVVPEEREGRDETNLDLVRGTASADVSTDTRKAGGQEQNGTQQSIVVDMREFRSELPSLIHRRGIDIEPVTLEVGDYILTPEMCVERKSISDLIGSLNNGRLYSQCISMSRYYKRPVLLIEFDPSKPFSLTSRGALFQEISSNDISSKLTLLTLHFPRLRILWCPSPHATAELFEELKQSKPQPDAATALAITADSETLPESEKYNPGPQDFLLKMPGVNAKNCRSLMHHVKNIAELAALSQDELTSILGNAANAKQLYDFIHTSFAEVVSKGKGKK
Experiment: SPR

Kd: ~5 nM
B1: ERCC1 (natural protein, UniProt P07992 1-297, looked up)
chain: MDPGKDKEGVPQPSGPPARKKFVIPLDEDEVPPGVAKPLFRSTQSLPTVDTSAQAAPQTYAEYAISQPLEGAGATCPTGSEPLAGETPNQALKPGAKSNSIIVSPRQRGNPVLKFVRNVPWEFGDVIPDYVLGQSTCALFLSLRYHNLHPDYIHGRLQSLGKNFALRVLLVQVDVKDPQQALKELAKMCILADCTLILAWSPEEAGRYLETYKAYEQKPADLLMEKLEQDFVSRVTECLTTVKSVNKTDSQTLLTTFGSLEQLIAASREDLALCPGLGPQKARRLFDVLHEPFLKVP
